The text below walks through data of patent US7033593.

One may read the koff as the first-order rate constant of dissociation. The low end stands for slow dissociation, the high end for fast dissociation. What is called Kd is the constant that tells how readily two partners part at equilibrium. A higher Kd goes with lower affinity. For orientation: kon means a measure of how fast the partners come together. Read a high kon as faster complex formation.

The target in assay [1] is T1, CD4-gp140-D1 complex (HIV 89.6 gp140 bound to sCD4 and the CCR5-D1 peptide) (HIV 89.6 (Clade B) primary isolate; human), Q73372. The assay can be described thus: SPR, RU bound at steady state, row CD4+gp140+R5-D1 (89.6 gp140). On the technique in general: Surface plasmon resonance follows binding to a sensor surface in real time, without labels.
Assay [2] addresses T1, CD4-gp140-D1 complex (HIV 89.6 gp140 …). The assay can be described thus: SPR, row CD4+gp140+R5-D1 (89.6 gp140); column headed Kd s-1.
Assay [3] addresses T2, CD4-gp140 complex (HIV 89.6 gp140 bound to sCD4) (HIV 89.6 (Clade B) primary isolate), Q73372. Briefly: SPR, row CD4+gp140 (89.6 gp140).
In assay [4] the target is T2, CD4-gp140 complex (HIV 89.6 gp140 bound …). Briefly: SPR, row CD4+gp140 (89.6 gp140); column headed Ka.
The target of assay [5] is T1, CD4-gp140-D1 complex (HIV 89.6 gp140 …). The assay can be described thus: SPR, row CD4+gp140+R5-D1 (89.6 gp140); column headed Ka.
In assay [6] the target is T2, CD4-gp140 complex (HIV 89.6 gp140 bound …). Briefly: SPR, RU bound at steady state, row CD4+gp140 (89.6 gp140).
The target of assay [7] is CD4-gp120 complex (HIV 89.6 gp120 bound to sCD4) (HIV 89.6 (Clade B) primary isolate), Q73372. The assay can be described thus: SPR, row CD4-gp120.
The target in assay [8] is T2, CD4-gp140 complex (HIV 89.6 gp140 bound …). Briefly: SPR, row CD4-gp140.
The target in assay [9] is T1, CD4-gp140-D1 complex (HIV 89.6 gp140 …). Briefly: SPR, row CD4+gp140+R5-D1 (89.6 gp140).
Assay [10] deals with T2, CD4-gp140 complex (HIV 89.6 gp140 bound …). Briefly: SPR, row CD4+gp140 (89.6 gp140); column headed Kd s-1.
Assay [11] shares this target. The assay can be described thus: SPR (FIG. 10D); the legend of the same figure prints 280 nM.
Assay [12] concerns the target soluble HIV 89.6 gp140 envelope protein (cleaved gp140 preparation) (HIV 89.6 (Clade B) primary isolate), Q73372. The assay can be described thus: SPR, peptide over directly immobilised 89.6 gp140, no CD4.
Assay [13] concerns the target T2, CD4-gp140 complex (HIV 89.6 gp140 bound …). Briefly: SPR, peptide over gp140 captured on immobilised CD4.

Take WMEWDREINNYTSLIHSLIEESQNQLEKNEQELLEL (modifications not checked) [HR-2 peptide T649Q26L]: the Rm in assay [1] is 64 RU; in [6], 53 RU. Also, the koff in [2] was 0.0053 s⁻¹; in assay [7], 0.0032 s⁻¹; in assay [8], 0.0011 s⁻¹; in assay [10] it was 0.0146 s⁻¹. The Kd turned out to be 2400 nM in assay [3], 2540 nM in assay [7], 1200 nM in [8] and 1000 nM in assay [9]. The t1/2 is 0.8 min in [3], 3.62 min in assay [7], 10.5 min in assay [8] and 2.18 min in assay [9]. For the same molecule, the on-rate (kon) was 6200 M⁻¹ s⁻¹ in [4], 5100 M⁻¹ s⁻¹ in assay [5], 1260 M⁻¹ s⁻¹ in [7] and 880 M⁻¹ s⁻¹ in assay [8].

In assay [11], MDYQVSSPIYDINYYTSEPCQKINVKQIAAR (modifications not checked) [CCR5-D1 peptide] registered a Kd of 280 nM. In addition, in assay [12], the Kd turned out to be 1000 nM and the koff is 0.01 s⁻¹. In assay [13], the Kd stood at 280 nM, the koff worked out at 0.00256 s⁻¹ and the kon is 9000 M⁻¹ s⁻¹.
